In the experiment the target is T1, Cry1F toxin (Bacillus thuringiensis, strain not …, UniProt Q03746).
T1 construct: Cry1F toxin of Bacillus thuringiensis, member of the Cry1 family; Commercial toxin
Briefly: ELISA. As to conditions: both partners purified. On the technique in general: ELISA stands for enzyme-linked immunosorbent assay.

T1 sequence (Q03746 whole entry): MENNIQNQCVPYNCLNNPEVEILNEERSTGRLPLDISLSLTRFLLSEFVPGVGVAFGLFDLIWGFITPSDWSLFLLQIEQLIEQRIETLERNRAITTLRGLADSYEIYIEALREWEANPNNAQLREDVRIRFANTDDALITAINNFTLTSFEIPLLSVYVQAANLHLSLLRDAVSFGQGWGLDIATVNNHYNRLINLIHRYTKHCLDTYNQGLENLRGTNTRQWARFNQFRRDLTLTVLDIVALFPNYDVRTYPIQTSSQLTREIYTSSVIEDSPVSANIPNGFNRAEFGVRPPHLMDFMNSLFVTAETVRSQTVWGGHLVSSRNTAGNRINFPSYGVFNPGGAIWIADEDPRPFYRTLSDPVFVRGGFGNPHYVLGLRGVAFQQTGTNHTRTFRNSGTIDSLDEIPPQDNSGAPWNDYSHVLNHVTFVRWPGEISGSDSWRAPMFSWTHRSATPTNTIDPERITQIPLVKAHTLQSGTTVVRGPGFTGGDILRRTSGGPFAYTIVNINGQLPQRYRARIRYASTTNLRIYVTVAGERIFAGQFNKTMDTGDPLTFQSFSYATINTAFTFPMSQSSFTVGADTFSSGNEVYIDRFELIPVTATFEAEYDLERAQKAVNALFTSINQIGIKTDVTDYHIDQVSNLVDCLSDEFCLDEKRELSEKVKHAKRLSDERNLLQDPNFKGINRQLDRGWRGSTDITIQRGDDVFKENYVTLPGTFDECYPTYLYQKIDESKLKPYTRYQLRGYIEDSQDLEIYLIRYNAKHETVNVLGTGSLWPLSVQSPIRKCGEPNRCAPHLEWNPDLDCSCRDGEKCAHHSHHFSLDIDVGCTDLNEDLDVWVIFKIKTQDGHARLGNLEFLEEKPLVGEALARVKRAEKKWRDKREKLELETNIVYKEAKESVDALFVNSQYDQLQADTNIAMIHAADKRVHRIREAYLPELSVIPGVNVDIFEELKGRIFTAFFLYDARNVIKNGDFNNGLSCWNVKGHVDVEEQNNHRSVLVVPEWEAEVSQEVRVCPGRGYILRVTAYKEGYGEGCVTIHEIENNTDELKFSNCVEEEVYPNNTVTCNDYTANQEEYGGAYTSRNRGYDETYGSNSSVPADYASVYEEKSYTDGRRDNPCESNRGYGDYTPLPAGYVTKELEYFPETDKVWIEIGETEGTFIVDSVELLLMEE

B1: anti-Cry1Ac nanobody Nb61 (VHH)
VHH: QVQLQESGGGSVQAGGSLRLSCEASENTYNSVYMAWFRQAPEKEREGVAVLSTGGGRTYYTDSVKGRFTISRDNAKNMVYLQMNSLKPDDTAMYYCAATYTGDSYGPSLYYLTPGRYEYWGQGTQVTVSS
notes: VHH from an immunised dromedary, in pMECS; HA tag is known from the detection with anti-HA tag antibody; also called Cry1Ac Nb61; source: E. coli WK6, periplasm, purified (Ni-NTA / His-Select IMAC); periplasmic extract in PE-ELISA
Consider B1, for which the binding result is recorded as “no binding (tested: 10 μg·mL^−1)”.

B2: anti-Cry1Ac nanobody Nb44 (VHH)
VHH: QVQLQESGGGSVQAGGSLRLSCATSGLTYSARITWFRQAPEKEREGVATFSTGSGSTGYADSVKGRFTISQDNAKNTLYLQMNNLKPEDTAMYYCAADTSTSWRDIVLVARYKYWGQGTQVTVSS
notes: VHH from an immunised dromedary, in pMECS; HA tag is known from the detection with anti-HA tag antibody; also called Cry1Ac Nb44; source: E. coli WK6, periplasm, purified (Ni-NTA / His-Select IMAC); periplasmic extract in PE-ELISA
Consider B2, for which the binding result was “no binding (tested: 10 μg·mL^−1)”.

Source of the values: publication PMC4280530, “Uniform Orientation of Biotinylated Nanobody as an Affinity Binder for Detection of Bacillus thuringiensis (Bt) Cry1Ac Toxin” (Toxins, 2014).
